This data set has as its target Polθ (full-length DNA polymerase theta) (human, UniProt O75417 1-2590). Description: fluorescence anisotropy; 1 mM ATP, 10 mM MgCl2; KD printed only in figure; significantly lower than Polθ-pol and Polθ-hel; Anisotropy: 25 mM Tris-HCl pH 8.8, 1 mM DTT, 0.01% NP-40, 10 mM MgCl2, 10% glycerol, 0.1 mg/ml BSA, 1 mM ATP, 30 mM NaCl, room temp, at least 30 min, 10 nM FAM-ssDNA. The conditions noted are these: protein: recombinant; tags: 3xFLAG (N-terminal); label: 5' FAM. A general note: Fluorescence polarisation rises when a labelled molecule tumbles more slowly, as on binding a larger partner.

Polθ (full-length DNA polymerase theta), sequence (O75417 whole entry): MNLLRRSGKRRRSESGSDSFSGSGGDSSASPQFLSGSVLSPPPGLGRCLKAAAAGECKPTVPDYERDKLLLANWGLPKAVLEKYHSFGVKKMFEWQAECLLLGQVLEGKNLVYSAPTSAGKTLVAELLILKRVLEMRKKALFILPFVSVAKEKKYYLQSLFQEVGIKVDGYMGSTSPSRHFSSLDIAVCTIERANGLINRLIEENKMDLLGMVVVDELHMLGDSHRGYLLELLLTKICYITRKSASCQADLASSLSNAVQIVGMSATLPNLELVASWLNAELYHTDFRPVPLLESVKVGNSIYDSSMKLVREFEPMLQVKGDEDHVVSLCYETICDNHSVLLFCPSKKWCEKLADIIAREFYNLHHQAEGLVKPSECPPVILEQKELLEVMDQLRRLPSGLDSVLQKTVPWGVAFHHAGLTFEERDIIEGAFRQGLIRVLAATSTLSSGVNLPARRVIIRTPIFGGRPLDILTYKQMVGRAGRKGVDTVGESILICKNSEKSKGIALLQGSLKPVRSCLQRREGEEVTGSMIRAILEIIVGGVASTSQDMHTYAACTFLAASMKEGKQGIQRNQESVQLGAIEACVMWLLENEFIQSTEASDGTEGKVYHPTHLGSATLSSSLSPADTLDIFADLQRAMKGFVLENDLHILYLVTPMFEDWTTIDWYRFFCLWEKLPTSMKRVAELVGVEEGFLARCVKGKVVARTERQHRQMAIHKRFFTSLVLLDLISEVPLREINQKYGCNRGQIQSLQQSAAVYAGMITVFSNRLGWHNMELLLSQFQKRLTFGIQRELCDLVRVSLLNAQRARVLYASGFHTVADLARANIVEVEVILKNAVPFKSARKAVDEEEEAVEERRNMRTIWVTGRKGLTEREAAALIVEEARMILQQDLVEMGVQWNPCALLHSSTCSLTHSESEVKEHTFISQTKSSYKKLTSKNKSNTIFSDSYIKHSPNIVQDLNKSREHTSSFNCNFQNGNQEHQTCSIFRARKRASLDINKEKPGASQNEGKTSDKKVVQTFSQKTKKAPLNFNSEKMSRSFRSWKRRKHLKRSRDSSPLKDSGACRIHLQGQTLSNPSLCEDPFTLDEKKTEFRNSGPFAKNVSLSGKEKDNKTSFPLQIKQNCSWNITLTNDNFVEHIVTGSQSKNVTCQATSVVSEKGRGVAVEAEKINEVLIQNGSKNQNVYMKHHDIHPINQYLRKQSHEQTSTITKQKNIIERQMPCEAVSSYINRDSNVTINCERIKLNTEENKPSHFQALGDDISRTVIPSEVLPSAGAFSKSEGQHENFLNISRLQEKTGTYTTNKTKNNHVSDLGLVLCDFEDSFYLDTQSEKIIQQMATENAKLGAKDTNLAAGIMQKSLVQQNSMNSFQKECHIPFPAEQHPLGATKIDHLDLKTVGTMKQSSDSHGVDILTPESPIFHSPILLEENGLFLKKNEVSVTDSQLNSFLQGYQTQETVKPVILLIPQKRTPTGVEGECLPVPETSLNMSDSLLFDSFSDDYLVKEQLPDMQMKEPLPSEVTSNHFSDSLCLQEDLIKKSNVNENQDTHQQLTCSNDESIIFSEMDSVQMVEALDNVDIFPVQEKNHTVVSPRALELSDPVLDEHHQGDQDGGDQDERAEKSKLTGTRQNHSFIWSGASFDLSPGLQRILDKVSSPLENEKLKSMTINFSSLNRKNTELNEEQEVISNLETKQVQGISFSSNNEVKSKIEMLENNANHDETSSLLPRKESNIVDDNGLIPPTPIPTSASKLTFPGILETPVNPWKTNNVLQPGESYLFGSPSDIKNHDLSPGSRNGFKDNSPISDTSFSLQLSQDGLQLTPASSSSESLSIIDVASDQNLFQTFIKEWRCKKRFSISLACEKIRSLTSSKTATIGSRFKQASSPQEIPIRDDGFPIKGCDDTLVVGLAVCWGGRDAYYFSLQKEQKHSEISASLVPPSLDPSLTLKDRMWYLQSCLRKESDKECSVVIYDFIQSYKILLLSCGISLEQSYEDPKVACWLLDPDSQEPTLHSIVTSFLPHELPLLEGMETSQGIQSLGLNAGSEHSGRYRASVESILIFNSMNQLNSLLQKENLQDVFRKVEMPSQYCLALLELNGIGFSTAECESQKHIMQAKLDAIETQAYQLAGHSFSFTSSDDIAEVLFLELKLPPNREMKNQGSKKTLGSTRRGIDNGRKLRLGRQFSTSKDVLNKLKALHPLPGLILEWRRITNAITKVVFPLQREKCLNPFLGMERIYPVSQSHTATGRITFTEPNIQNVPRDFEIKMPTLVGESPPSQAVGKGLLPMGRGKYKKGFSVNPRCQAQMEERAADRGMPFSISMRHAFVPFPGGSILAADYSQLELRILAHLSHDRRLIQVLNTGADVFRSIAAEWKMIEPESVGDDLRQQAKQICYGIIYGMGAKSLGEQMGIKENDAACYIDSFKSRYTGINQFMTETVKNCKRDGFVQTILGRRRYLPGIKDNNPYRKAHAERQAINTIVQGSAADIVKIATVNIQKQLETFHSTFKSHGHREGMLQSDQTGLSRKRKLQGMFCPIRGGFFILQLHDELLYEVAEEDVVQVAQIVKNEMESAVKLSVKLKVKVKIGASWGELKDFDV

B1: RP316FAM5 (29 nt ssDNA) (ssDNA)
DNA: TTTTTTTTTTTTTTTTTTTTTTTTTTTTT
Consider B1, for which the binding result is “binds”.

These data come from PMC6764996, “Molecular basis of microhomology-mediated end-joining by purified full-length Polθ”.
